In assay [1] the test system is EPEA (SEQ ID NO:1)-tagged Rev protein. Put plainly: In vivo detection of EPEA-tagged Rev in transfected HeLa cells by confocal microscopy. The assay is classed as cell-based, HIV. The conditions noted are these: nanobody fused to mKO1 or GFP, GYQDYEPEA and EPEA tags.
Text: In another set of experiments, we explored the use of the EPEA (SEQ ID NO:1) tag to detect/visualize the expression of recombinant proteins within a (living) eukaryotic cell. […] Cells that are double-transfected with Rev-[sequence] (SEQ ID NO:10) or Rev-[sequence]
The two different tags [sequence] (SEQ ID NO:2) and EPEA (SEQ ID NO:1) were C-terminal fused to Rev by PCR using Takara Ex Taq polymerase (TAKARA BIO INC).
HeLa, human epithelial cells were maintained using standard procedures until confluent in DMEM medium with 10% fetal calf serum. For transfection of plasmid DNA in HeLa, cells were harvested by a Trypsin/EDTA treatment, counted and plated onto glass bottom microwell dishes (MatTek corporation). Transfections were preformed according to manufacturer's manual: the 4×10^5 cells were seeded in a 35 mm dish. […]
Transfected HeLa cells were imaged with a laser scanning SP5 confocal microscope (Leica Microsystems) equipped with an AF 6000 microscope and an AOBS, using a HCX PL APO×63 (NA 1.2) water immersion objective magnification. GFP was monitored with the Ar laser using the 488-nm line for excitation, and emission was detected between 492 and 570 nm. mKusabira orange fluorescent protein (mKO) was imaged using the DPSS-561 nm laser for excitation, and emission was detected between 570 and 675 nm.
For assay [2], the target named is Peptide N-YEPEA-C (SEQ ID NO: 11), residues Y136-A140 of full-length α-synuclein (Homo sapiens, UniProt P37840). Put plainly: Isothermal titration calorimetry (ITC) of NbSyn2 binding to C-terminal peptide fragment of α-synuclein.
Experimental: Calorimetric measurements were recorded using a MCS-ITC calorimeter (MicroCal, LLC, Northampton, Mass., USA). […] Both proteins were dialyzed prior to measurements in exactly the same buffer containing 10 mM phosphate, 150 mM sodium chloride at a pH of 7.4. Each injection was performed every four minutes at the desired temperature. […] The thermodynamic analysis was performed using the Microcal analysis software (Origin 7.0) with a 1:1 binding model. The temperature dependence of ΔH, allowed the calculation of ΔCp through the relationship ΔCp=δΔH/δT. The contribution of protonation to the ΔH was evaluated using a 10 mM Tris-HCL buffer 100 mM NaCl at pH 7.4.

On to “NbSyn2: Nanobody that specifically binds to α-synuclein, 126 amino acids, SEQ ID NO:21”, for which the “Recognition of tagged Rev in double-transfected cells (colocalization in the nucleus)” value in assay [1] is reported as “recognized in vivo”. Besides, the Kd in assay [2] (293.1 K) was 240 ± 26 nM; in assay [2] (298.1 K), 190 ± 30 nM; in assay [2] (303.1 K), 460 ± 110 nM; in assay [2] (310.1 K) it was 850 ± 130 nM.

The values are drawn from patent US9518084B2, “Epitope tag for affinity-based applications” (VIB VZW, priority 2010, dated 2016).
